Assays:
[1] = target: T1, SEQ ID NO 69; assay: peptide array of 15-mers, antibody diluted to 1/100 and 1/500
T1 construct: 15-residue KK-LC-1 peptide of the peptide array
T1 peptide: KLVELEHTLLSKGFR
Excerpt: (§1) An antigen of the monoclonal antibody produced by the hybridoma cell line (accession number: NITE BP-02527) was identified by epitope mapping. Specifically, first, 73 types of 15-amino acid residue peptides in which a position on an N-terminus side was shifted by one amino acid residue each were synthesized based on the amino acid sequence of the KK-LC-1 protein to produce a peptide array. Amino acid sequences of the 73 types of peptides are shown in SEQ ID NOs: 13 to 85, respectively.
(§2) Subsequently, the peptide array was reacted with a monoclonal antibody to identify peptides having reactivity. The monoclonal antibody was diluted to 1/100 and 1/500 and the resultants were each reacted.

[2] = target: T2, SEQ ID NO 70; assay: as above
T2 construct: 15-residue KK-LC-1 peptide of the peptide array
T2 peptide: LVELEHTLLSKGFRG
Excerpt: as §1, §2

[3] = target: T3, VELEHTLLSKGFRGA (SEQ ID NO: 71); assay: as above
T3 construct: 15-residue KK-LC-1 peptide of the peptide array
T3 peptide: VELEHTLLSKGFRGA
Excerpt: as §1, §2

[4] = target: T4, LSMVENKLVELEHTL (SEQ ID NO: 63); assay: as above
T4 construct: 15-residue KK-LC-1 peptide of the peptide array
T4 peptide: LSMVENKLVELEHTL
Excerpt: as §1, §2

[5] = target: T5, SEQ ID NO 64; assay: as above
T5 construct: 15-residue KK-LC-1 peptide of the peptide array
T5 peptide: SMVENKLVELEHTLL
Excerpt: as §1, §2

[6] = target: T6, SEQ ID NO 65; assay: as above
T6 construct: 15-residue KK-LC-1 peptide of the peptide array
T6 peptide: MVENKLVELEHTLLS
Excerpt: as §1, §2

[7] = target: T7, SEQ ID NO 66; assay: as above
T7 construct: 15-residue KK-LC-1 peptide of the peptide array
T7 peptide: VENKLVELEHTLLSK
Excerpt: as §1, §2

[8] = target: T8, SEQ ID NO 67; assay: as above
T8 construct: 15-residue KK-LC-1 peptide of the peptide array
T8 peptide: ENKLVELEHTLLSKG
Excerpt: as §1, §2

[9] = target: T9, SEQ ID NO 68; assay: as above
T9 construct: 15-residue KK-LC-1 peptide of the peptide array
T9 peptide: NKLVELEHTLLSKGF
Excerpt: as §1, §2

[10] = target: T10, Kitakyushu lung cancer antigen-1 (KK-LC-1) protein (human (tissue slices of patients), UniProt Q5H943 1-113); assay: immunohistochemical staining of formaldehyde-fixed tissue slices
T10 construct: Endogenous protein in formaldehyde-fixed tissue slices (testis, seminoma, gastric tissue) stained by immunohistochemistry; also called NP_001017978.1
T10 sequence: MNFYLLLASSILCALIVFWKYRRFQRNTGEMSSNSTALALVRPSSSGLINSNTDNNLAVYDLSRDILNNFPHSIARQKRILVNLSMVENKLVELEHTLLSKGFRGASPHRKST
Excerpt: Tissue slices of a normal region and a tumor region of a patient suffering from a testicular tumor and tissue slices of a normal region and a tumor region in a gastric tissue of a patient suffering from a gastric cancer, which are fixed with formaldehyde, were stained by using the produced monoclonal antibodies.

[11] = target: T11, peptide having the amino acid sequence set forth in SEQ ID NO: 1; assay: ELISA on immobilized peptide (Experimental Example 2) and absorption operation (Experimental Example 4)
T11 construct: Immunogen; immobilized on a 96-well plate in the ELISA and used for the absorption operation at 0.05 mg/mL; also called immunized peptide; peptide used for the immunization of the mouse
T11 peptide: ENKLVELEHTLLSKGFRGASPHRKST
Method: Reactivity of a monoclonal antibody was confirmed by an ELISA method using an immunized peptide as an antigen. Specifically, first, the peptide having the amino acid sequence set forth in SEQ ID NO: 1 was immobilized on a 96-well plate. Moreover, as a control, a 96-well plate in which only blocking was performed without immobilizing the peptide was used. A skim milk solution was used for the blocking.
Subsequently, the 96-well plate was blocked, a culture supernatant of each established hybridoma cell line was added thereto, and a reaction was performed. Moreover, for comparison, wells reacted with a normal mouse serum were also prepared. Next, the unreacted monoclonal antibody was washed off, the resultant was reacted with an anti-mouse secondary antibody, and a chromogenic substrate was added to develop color. Then, absorbance of each well was measured using a plate reader.
For the absorption operation of the monoclonal antibody, the peptide having the amino acid sequence set forth in SEQ ID NO: 1 was used at a final concentration of 0.05 mg/mL. Moreover, the absorption operation was performed overnight at 4° C. [0090] (a) to (d) of FIG. 3 are photographs showing results of immunohistochemical staining. In each case, a magnification was 200 times. […]

Measured: binding result

B1: monoclonal antibody produced by the hybridoma cell line having an accession number of NITE BP-02527 (antibody, V domains shown)
VH: EVQLQQSGPELVKPGASVKMSCKTSGYTSTEYTMHWVKQSHGQSLEWIGVIYPNNGDTSYNQKFRGKATLTVDKSSNTAYMELRSLTSEDSAVYYCARLGWQGFANWGQGTLVTVSA
VL: DIVMTQAAPSVPVTPGESVSISCRSSKSLLHSNGNTFLYWFLQRPGQSPQLLIYRMSNLASGVPDRFSGSGSGTAFTLRISRVEAEDVGVYYCMQHLEYPLTFGAGTKLELK
notes: Mouse hybridoma antibody, used as culture supernatant; also called 34B3; 277 34B3 20170123
binds: all assays above
